Measurements published in US20060199247A1.

Biological target: beef heart phosphodiesterase (Boeringer Mannheim) (beef)

Q: Which phosphodiesterase activity does the source give for calmodulin here?
A: 6.5 fold
